Literature values in article PMC5578174.
pKd: −log10 of the molar value.

Tests used:
PDGFRα (Homo sapiens) = PDGFRα (Homo sapiens) (UniProt P16234)
Ang-2 (Homo sapiens) = Ang-2 (Homo sapiens) (UniProt O15123)
Ang-2 (Homo sapiens), sequence (O15123 19-496): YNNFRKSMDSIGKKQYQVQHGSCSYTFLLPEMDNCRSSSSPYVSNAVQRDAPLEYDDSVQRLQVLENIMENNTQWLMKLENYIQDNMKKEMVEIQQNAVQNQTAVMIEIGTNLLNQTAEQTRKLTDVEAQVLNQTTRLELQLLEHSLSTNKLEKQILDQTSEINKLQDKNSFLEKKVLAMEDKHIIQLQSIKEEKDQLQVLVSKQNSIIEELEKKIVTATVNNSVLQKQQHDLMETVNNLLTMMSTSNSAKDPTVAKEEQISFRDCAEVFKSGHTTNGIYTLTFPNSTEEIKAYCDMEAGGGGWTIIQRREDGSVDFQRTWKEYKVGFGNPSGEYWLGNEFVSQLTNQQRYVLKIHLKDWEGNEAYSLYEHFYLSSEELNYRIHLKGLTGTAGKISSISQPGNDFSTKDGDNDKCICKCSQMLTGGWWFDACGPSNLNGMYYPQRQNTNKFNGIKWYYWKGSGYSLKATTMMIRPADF

PDGFRα (Homo sapiens), sequence (P16234 24-528): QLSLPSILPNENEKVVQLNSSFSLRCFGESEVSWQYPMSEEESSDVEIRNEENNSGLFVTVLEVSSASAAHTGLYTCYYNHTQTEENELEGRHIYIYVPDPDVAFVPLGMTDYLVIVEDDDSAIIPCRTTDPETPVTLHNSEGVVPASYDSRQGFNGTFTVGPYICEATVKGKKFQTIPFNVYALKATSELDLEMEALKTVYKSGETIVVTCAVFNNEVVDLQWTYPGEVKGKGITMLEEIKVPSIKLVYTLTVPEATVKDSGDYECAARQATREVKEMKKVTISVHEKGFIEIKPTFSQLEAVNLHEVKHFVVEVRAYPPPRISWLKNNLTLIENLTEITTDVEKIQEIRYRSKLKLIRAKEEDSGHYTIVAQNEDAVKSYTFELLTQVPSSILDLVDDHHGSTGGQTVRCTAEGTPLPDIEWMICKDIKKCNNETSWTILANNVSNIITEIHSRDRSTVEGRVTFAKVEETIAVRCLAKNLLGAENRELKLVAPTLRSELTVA

Substance	pKd (PDGFRα (Homo sapiens))	pKd (Ang-2 (Homo sapiens))
Olaratumab	10.40	–
Nesvacumab	–	10.62
